Results from PMC9391379, “Ferritin-mediated iron detoxification promotes hypothermia survival in Caenorhabditis elegans and murine neurons” (Nature Communications, 2022).
Changes are numbered by the printed parent chain. Names may count otherwise.

B1: C. elegans ferritin FTN-1, recombinant, untagged, wild type (natural protein, UniProt O16453 1-170, looked up)
chain: MSLARQNYHDEVEAAVNKQINVELYASYVYLSMSAHFDRDDIALRNIAKFFKEQSDEERGHATELMRIQAVRGGRVAMQNIQKPEKDEWGTVLEAFEAALALERANNASLLKLHGIAEQRNDAHLTNYIQEKYLEEQVHSINEFARYIANIKRAGPGLGEYLFDKEEFSD
notes: FTN-1, C. elegans ferritin; ORF amplified from C. elegans cDNA and cloned between NcoI and NotI of pET28a; expressed without a tag; also called FTN-1 wt; source: E. coli BL21-CodonPlus (DE3)-RIPL, purified (heat step, acid precipitation, cation exchange)
B2: C. elegans ferritin FTN-2, recombinant, untagged, wild type (natural protein, UniProt Q9TYS3 1-170, looked up)
chain: MSLARQNYHSEVEAAVNKQINIELYASYVYLSMSFYFDRDDVALPNIAKFFKEQSDEEREHATELMRVQNLRGGRVVLQDIQKPENDEWGTALKAFEAALALEKFNNESLLKLHSTAGNHNDAHLTDFIEEKYLDEQVKSINEFARMVANLKRVGPGVGEYVFDKEHFSD
notes: FTN-2, C. elegans ferritin; ORF amplified from C. elegans cDNA and cloned between NcoI and NotI of pET28a; expressed without a tag; also called FTN-2 wt; source: E. coli BL21-CodonPlus (DE3)-RIPL, purified (heat step, acid precipitation, cation exchange)
B3: C. elegans ferritin FTN-1 E58K/H61G (FeOx-mut), recombinant, untagged (natural protein, UniProt O16453 1-170, looked up)
chain: B1 chain with E58K, H61G
notes: FTN-1, C. elegans ferritin; ORF in pET28a with the E58K/H61G double mutation made by site-directed mutagenesis; expressed without a tag; also called FTN-1 FeOx-mut; E58K/H61G-mutated FTN-1; source: E. coli BL21-CodonPlus (DE3)-RIPL, purified (heat step, acid precipitation, cation exchange)
B4: C. elegans ferritin FTN-2 E58K/H61G (FeOx-mut), recombinant, untagged (natural protein, UniProt Q9TYS3 1-170, looked up)
chain: B2 chain with E58K, H61G
notes: FTN-2, C. elegans ferritin; ORF in pET28a with the E58K/H61G double mutation made by site-directed mutagenesis; expressed without a tag; also called FTN-2 FeOx-mut; E58K/H61G-mutated FTN-2; source: E. coli BL21-CodonPlus (DE3)-RIPL, purified (heat step, acid precipitation, cation exchange)

Molecular target: the molecule itself
Test: native gel or EMSA; recombinant FTN variants (2 µg) resolved on a 4–16% gradient NativePAGE Bis-Tris gel, Coomassie Blue stained; NativeMark standard for the size of complexes; self-assembly into high molecular weight complexes

Does B1 bind?
Result: binds

Does B2 bind?
Result: binds

Does B3 bind?
Result: binds

Does B4 bind?
Result: binds
